13 molecules from patent US20240294641A1 (CHILDREN S MEDICAL CENTER, published 2024) can be followed below.

As usually defined, the Kd is the equilibrium constant for the complex coming apart. Read a high Kd as weaker binding. The term koff denotes the first-order rate constant of dissociation. A lower koff goes with slow dissociation. Broadly, the kon is the rate constant with which the complex forms.

For assay [1], the target named is T1, full-length human PD1 expressed on NS1 cells (PD1-NS1) (human, UniProt Q15116 25-288).
T1 construct: whole, on cells; also called surface-expressed PD1; PD1 expressing cell line
As to the kind of experiment: FACS on PD1-NS1 cells, PE-anti-human kappa.

Assay [2] addresses T2, PD1 extracellular domain, without fusion to other proteins (human, UniProt Q15116 25-170).
T2 construct: extracellular domain; also called unfused PD1; monomeric PD1
As to the kind of experiment: ELISA, plate coated with PD1 extracellular domain without Fc fusion, OD405.
Source text: (§1) ELISA was used to compare the PD1 binding activities of the new and previous anti-PD1 antibodies. The ELISA coating antigen was a recombinant protein of the extracellular domain of PD1, without fusion to other proteins so that the ELISA measured binding activities specific to PD1.

Assay [3] concerns the target T1, full-length human PD1 expressed on NS1 …. As to the kind of experiment: FACS on PD1-NS1 cells, PE-anti-human kappa. The source holds these as a separate data set.
Procedure: To test the binding of anti-PD1 antibodies to surface expressed PD1, full-length human PD1 in mouse plasmacytoma cell line, NS1, was expressed. […] A construct that expresses the full length human PD1 was transfected into NS1 cells, and clones with stable integration of the expression construct were obtained. […] For the FACS analysis in FIG. 5B, the PD1-NS1 cells were incubated with anti-PD1 antibodies. […] The FACS staining reaction was analyzed on Attune NXT FACS machine, and the data were plotted with FlowJo 10 software.
Assay [4] concerns the target T2, PD1 extracellular domain, without …. As to the kind of experiment: ELISA, plate coated with PD1 extracellular domain without Fc fusion, OD405. This is another data set of the same source. Background: An ELISA detects its analyte on a solid surface through an enzyme-linked reagent.
Source text: as §1
In this ELISA experiment, PD1 extracellular domain, without Fc fusion, was coated on the ELISA plate.
Assay [5] has the same target. Briefly: Biacore (SPR), antibody immobilized on the sensor chip, PD1 extracellular domain in flow.
Procedure: In this assay, antibodies were immobilized on sensor chips, and PD1 extracellular domain, the same protein used in the ELISA experiment in FIG. 5C, flowed through sensor chip. The kinetics of PD1/antibody interaction was measured in real time. The table lists the association rate constant (kₐ), dissociation rate constant (kd) and equilibrium dissociation constant (KD) for each antibody.
Biacore analysis of the kinetics of the interaction between anti-PD1 antibodies and PD1 was performed by Affina Biotechnologies. Given the quantitative and sensitive nature of the assay, non-physiological modifications of the antibodies and PD1 were minimized. […] The PD1-Fc fusion protein contains a TEV protease cleavage site. After TEV digest, the PD1 portion was separated from the Fc region. […] However, in the context of the PD-Fc fusion, PD1 is dimerized through the Fc region and may engage in bivalent interactions with IgG antibodies. The avidity effect can cause major deviations from the actual binding affinity between monomeric PD1 and single antigen-binding site. Separation of PD1 from the Fc portion prevented this error. In the biacore assay, the antibodies were immobilized on sensor chips and PD1 was passed over the immobilized antibodies. Association and dissociation of antibodies and PD1 were detected in real time.

Changes are numbered by the printed parent chain. Read-outs that look alike come from different tables or passages of the source.

T2 sequence (Q15116 25-170): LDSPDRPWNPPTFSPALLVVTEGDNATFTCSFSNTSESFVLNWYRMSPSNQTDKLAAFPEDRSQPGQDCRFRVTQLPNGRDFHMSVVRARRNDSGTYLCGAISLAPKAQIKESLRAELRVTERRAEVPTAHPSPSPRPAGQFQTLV
T1 sequence (Q15116 25-288): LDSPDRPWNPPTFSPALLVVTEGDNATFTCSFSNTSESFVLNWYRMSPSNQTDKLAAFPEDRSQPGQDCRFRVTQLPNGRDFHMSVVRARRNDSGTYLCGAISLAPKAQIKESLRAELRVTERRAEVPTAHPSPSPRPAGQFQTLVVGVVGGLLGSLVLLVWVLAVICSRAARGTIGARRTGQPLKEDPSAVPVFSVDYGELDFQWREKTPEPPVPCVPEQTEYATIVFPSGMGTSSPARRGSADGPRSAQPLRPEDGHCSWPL

B1: M1-4 (antibody, V domains shown)
VH: QVQLVESGGDVVQPGGSLRLSCAVSGVTFGDFGFEWVRQAPGKGLEWVAVIWYDGSRKHYAESVRGRFTISRDNSRNMMYLEMTGLRVEDTAKYYCTRSHSHEDYWGQGTLVTVSS
VL: EIVLTQSPATLSLSPGERATLSCRASQSISNYLAWFQQKSGQAPRLIIHDAFKRAAGIPTRFSGSGSGTDFTLTISSLEPEDFAVYYCQQRDNWPLNFGGGTKVEIK
notes: Expressed as human IgG4/kappa in 293F or Expi293 cells; also called 319-9-27
Turning to B1, the binding result in assay [1] and in assay [2] was “binds” in each case.

B2: M1-6 (antibody, V domains shown)
VH: B1 VH with P14S, T28V, G30S, F32Y, E62D, R65Q, S75F, M79L, E82Q
VL: EIVLTQSPATLSLSPGERATLSCGASQNIDNSLAWFQQKPGQAPRLIIYDASKRATGIPARFSGSGSGTDFTLTISTLEPEDFAVYYCQQRDHWPLNFGGGTKVEVK
notes: Expressed as human IgG4/kappa in 293F or Expi293 cells; also called 319-9-53
For B2, the binding result in assay [1] and in assay [2] was “binds” in each case.

B3: M1-7 (antibody, V domains shown)
VH: QLQLVESGGDVVQPGGSLRLSCAASGVVFSDFGLEWVRQAPGKGLEWLAVIWYDGSRKHYADSVKGRFTISRDNSKNMLYLQMNSLRVEDTAMYYCARCHSKEDYWGQGTLVTVSS
VL: EIEVTQSPATLSLSPGERATLSCRASQSIDTDLAWFQQRPGQTPRLIIYDASKRATGIPARFSGGGSGTDFTLTISSLEPEDFAVYYCQQRTTWPLTFGGGTKVEIK
notes: Expressed as human IgG4/kappa in 293F or Expi293 cells; also called 319-9-75
In the case of B3, the binding result in assay [3] and in assay [4] was “binds” in each case.

B4: M1-2 (antibody, V domains shown)
VH: B3 VH with L2V, V28A, F32Y, L34M, M78I, V88A, E103D
VL: B3 VL with E3V, V4L, S7F, A25T, S28N, T31S, R39K, T43A, K53N, S76T
notes: Expressed as human IgG4/kappa in 293F or Expi293 cells; also called 319-9-15
Turning to B4, the binding result in assay [1] and in assay [2] was “binds” each time.

B5: 17D8 antibody (antibody, V domains shown)
VH: QVQLVESGGDVVQPGGSLRLSCAASGVAFSNYGMHWVRQAPGKGLEWVAVIWYDGSNKYYADSVKGRFTISRDNSKNMLYLQMNSLRAEDTAMYYCARNDDYWGQGTLVTVSS
VL: EIVLTQSPATLSLSPGERATLSCRASQSVSSYLAWYQQKPGQAPRLIIYDASNRATGIPARFSGSGSGTDFTLTISSLEPEDFAVYYCQQRSNWPLTFGGGTKVEIK
notes: Prototype anti-PD1 antibody (U.S. Pat. No. 8,008,449 B2); Produced as human IgG4/kappa; His-tagged for ELISA, untagged for Biacore
Regarding B5, in assay [5], the affinity, expressed as Kd, was 3.4 nM; the koff was found to be 0.0013 s⁻¹; the kon came out at 387000 M⁻¹ s⁻¹.

B6: M2-3 (antibody, V domains shown)
VH: QGHLVESGGDVVLPGGSLRLSCTESGVDLSDFGIHWVRQTPGKGLEWVALIWYDGSKKFYADSVKDRFTISRDNSKNMVYLEMISLRVEDTAMYFCARGIRRGPWFTYWGPGTLVTVST
VL: B5 VL with A9V, T10I, V29I, Y32D, Y36F, K39T
notes: Expressed as human IgG4/kappa in 293F or Expi293 cells; also called 397-27-25
On to B6, for which the binding result in assay [3] and in assay [4] was “binds” throughout.

B7: M2-4 (antibody, V domains shown)
VH: QVQLVESGGDVVQPGGSLRLSCAASGVAFRNYGMHWVRQAPGKGLEWVAIIWYDGSNKYYADSVKGRFTISRDNSKNMLYLQMNSLRAEDTAMYYCARLSIGTTHYFDTDDYWGQGTSVTVSS
VL: B5 VL with P40V, Y49F, S76T, E79D, N93A, K107R
notes: Expressed as human IgG4/kappa; 6xHis tag at the C-terminus of the Fc for ELISA
In the case of B7, the binding result in assay [1] and in assay [2] was “binds” throughout.

B8: M1-5 (antibody, human IgG4, V domains shown)
VH: QVQLVESGGDVVQPGGSLRLSCTVSGAVFRDLGMEWVRQAPGKGLEWLAVIWYDGGRKHYADSVKGRFTISRDNSRNMLFLQMNGLRVDDTAMYYCTRSHSTDDYWGQGTLVTVSS
VL: B1 VL with L13V, N31S, Y32D, S40P, D50G, F52S, A56T, T60A, N93S
notes: Expressed as human IgG4/kappa; without His tag and Protein A purified for Biacore; also called 319-9-34
In assay [5], B8 yielded a Kd of 2.1 nM, a koff of 0.0021 s⁻¹ and a kon of 995000 M⁻¹ s⁻¹.

B9: M2-1 (antibody, human IgG4, V domains shown)
VH: QVQLVESGGDVVQPGGSLRLSCSASGLVFRDYGMNWVRQAPGKGLEWVGLIWYDGTKKYYSDFVKGRFTISRDNSKNMLYLQMNNLRAEDTAIYYCARFLIGATRRGNAMDYWGQGTSVIVSS
VL: B5 VL with I2V, V29I, S30D, Y32D, Y36S, P40T, A43P, N93D, K107R
notes: Expressed as human IgG4/kappa; without His tag and Protein A purified for Biacore; also called 397-27-3
As to B9, in assay [5], the Kd was 3.7 nM, the koff stood at 0.00074 s⁻¹ and the kon was found to be 199000 M⁻¹ s⁻¹.

B10: M2-5 (antibody, V domains shown)
VH: QVQLVESGGDVVQPGGSLRLSCAASGVVFSDYGLYWVRQAPGKGLEWVALIWYDGSKKFYADSVKGRFSISRDNSKNMLYLQMNNLRADDSAIYYCSRGIRQGPWFAYWGQGTRVTVSP
VL: B5 VL with V29I, Y32D, A34T, Y36F, A84V, Q89L, N93D
notes: Expressed as human IgG4/kappa in 293F or Expi293 cells; also called 397-27-93
B10: the binding result in assay [1] and in assay [2] was “binds” throughout.

B11: M1-1 (antibody, V domains shown)
VH: B5 VH with S30R, N31D, N57K, A61G, I70V, Q82E, S85G, R87K
VL: EIVLTQSPATLSLSPGERATLSCRASQSVSNSLSWYQQNPGQSPRLIIYDTSKRATGIPARFSGSGSGTDFTLTINNLETEDFAVYYCHQRSDWPLTFGGGTKVEIK
notes: Expressed as human IgG4/kappa in 293F or Expi293 cells; retains the CDR H3 of 17D8; also called 319-9-8
In the case of B11, the binding result in assay [3] and in assay [4] was “binds” each time.

B12: M2-2 (antibody, V domains shown)
VH: B9 VH with F29I, R30S, T56S, M78I, I93M, I120T
VL: B5 VL with I2V, V29I, S30D, Y32D, Y36S, A43P, N93D, K107R
notes: Expressed as human IgG4/kappa in 293F or Expi293 cells; also called 397-27-23
As to B12, the binding result in assay [1] and in assay [2] was “binds” in each case.

B13: M1-3 (antibody, V domains shown)
VH: QEWLVESGGDVVQPGGSLRLSCATSKVTFNDFGIHWVRQAPGKGLEWVAIIWYDGSRNHYADSVRGRFTLSRDNSKNMVHLHMSSLRTEDTAMYYCARGIHSNDDYWGQGTMVTVSS
VL: EIVLTQSPATLSLSPGERATLSCRTSQSVSSDLAWFQQKPGQAPRLFIFDASKRVNGIPARFSGSGSGTDFTLTISSLEPEDFAVYYCQQRTDWPLTFGGGSRVEIK
notes: Expressed as human IgG4/kappa in 293F or Expi293 cells; also called 319-9-17
Consider B13, for which the binding result in assay [1] and in assay [2] was “binds” in each case.
